Earlier results on one substance are cited in patent US7202065B2, “Stabilized liquid preparation of the protease which activates blood coagulation factor VII, or of its proenzyme” (ZLB Behring GmbH, priority 2001, dated 2007).

For this data set the following is noted: solution containing 20 mM Tris, 0.15 mM NaCI at a pH of 7.5.

Turning to “proenzyme: proenzyme, which is the non-activated form of the protease which activates blood coagulation factor VII”, the “loss of activity after enrichment or isolation” value is reported as “rapid loss of activity”.
